Laboratory results: patent US20070020269A1 (published 2007)

Assays:
p21-D3 = molecular target: T1, p21-D3 (UniProt P38936 60-164); experiment: co-immunoprecipitation (anti-myc IP, anti-flag blot), co-transfected 293T cells
T1 construct: not shown: myc-tag from pcDNA3 vector
Description: (§1) In order to determine the interacting regions of RX50 and p21, the 293T cells were co-transfected with RX50 and p21, RX50 and p21-D1, RX50 and p21-D2, RX50 and p21-D3, RX50 and p21-C, RX50 and p21-N, respectively. The transfected cells were allowed to grow 24 hrs before lysis. The supernatant was collected by centrifugation. The […] were subjected to immunoprecipitation with anti-myc antibody and Protein G. The product of co-immunoprecipitation was electrophoresised on SDS-PAGE, transferred onto a nitro cellulose membrane, and then subjected to immunoblot with a enzyme-labeled anti-flag antibody. […] It was inferred that the region of p21 interacting with RX50 was located between amino acid residue 40 to 60 of p21.

p21-C = molecular target: T2, p21-C (UniProt P38936 91-164); experiment: as above
T2 construct: not shown: myc-tag from pcDNA3 vector
Description: as §1

T1 sequence (P38936 60-164): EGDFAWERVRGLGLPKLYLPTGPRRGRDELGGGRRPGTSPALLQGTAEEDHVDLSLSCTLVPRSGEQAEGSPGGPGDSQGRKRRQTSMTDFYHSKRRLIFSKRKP
T2 sequence (P38936 91-164): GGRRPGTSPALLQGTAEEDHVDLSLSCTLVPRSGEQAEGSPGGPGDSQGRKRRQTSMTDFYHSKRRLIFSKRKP

binding result (p21-D3): no binding
binding result (p21-C): no binding
B1: Flag-RX50 (enzyme)
chain: MHGYFGCNAAAEPGYSAFVGTPQICVTKFSTRNCQGMDSVIKPLDTIPEDKKVRVQRTQSTFDPFEKPANQVKRVHSENNACINFKTSSTGKESPKVRRHSSPSSPTSPKFGKADSYEKLEKLGEGSYAYVYKGKSKVNGKLVALKVIRLQEEEGTPFTAIREASIIKGLKHANIVLLHDIIHTKETLTLVFEYYHTDLCQYMDKHPGGLHPDNVKLFLFQLLRGLSYIHQRYILHRDLKPGNLLISDTGELKLADFGLAKAKSVPSHTTSNEVVYLWYRPPDVLLGSTEYSTCLDMWGVGCIFVEMIQGVAAFPGMKDIQDQLERIFLVLGTPNEDTWPGVHSLPHFKPERFTLYSSKNLRQAWNKLSYVNHAEDLASKLLQCSPKNRLSAQAALSHEYFSDLPPRLWELTDMSSIFTVPNVRLQPEAGESMRAFGKNNSYGKSLSNSKH
notes: Expressed in transfected 293T cells; also called RX50 protein; not shown: N-terminal flag-tag from modified pcDNA3.1
